Substrate in data set [1]: Cc1ccccc1C1=C2C=CC(=N)C=C2[Si](C)(C)c2cc(NC(=O)[C@H](CC(=O)O)NC(=O)[C@@H](NC(=O)[C@H](CCC(=O)O)NC(=O)[C@H](CC(=O)O)NC(=O)OCc3ccccc3)C(C)C)ccc21
Description: Ratio of Kcat to Km for caspase3 by FRET assay.

Substrate in data set [2]: Cc1ccccc1C1=C2C=CC(=N)C=C2[Si](C)(C)c2cc(NC(=O)[C@H](CC(=O)O)NC(=O)[C@@H](NC(=O)[C@H](CCC(=O)O)NC(=O)[C@H](CC(=O)O)NC(=O)OCc3ccccc3)C(C)C)ccc21
Description: Activity of caspase3 after 10 hrs by FRET assay.

B1: Caspase-3 (Homo sapiens), P42574 (protein)
chain: MENTENSVDSKSIKNLEPKIIHGSESMDSGISLDNSYKMDYPEMGLCIIINNKNFHKSTGMTSRSGTDVDAANLRETFRNLKYEVRNKNDLTREEIVELMRDVSKEDHSKRSSFVCVLLSHGEEGIIFGTNGPVDLKKITNFFRGDRCRSLTGKPKLFIIQACRGTELDCGIETDSGVDDDMACHKIPVEADFLYAYSTAPGYYSWRNSKDGSWFIQSLCAMLKQYADKLEFMHILTRVNRKVATEFESFSFDATFHAKKQIPCIVSMLTKELYFYH
In general, Km refers to the concentration of substrate that gives half-maximal velocity. For B1, the kcat/Km in data set [1] is 3.1 ×10⁶ /M/s. Further, in data set [2], the Km was 1.2 µM and the Vmax is 6.8 ×10⁻⁸ M/s.

The values are drawn from ChEMBL document CHEMBL2029331, “Red fluorescent scaffold for highly sensitive protease activity probes” (Bioorg Med Chem Lett, 2012).
